Source: PMC10341550 (2023)

Molecular target: ROCK2 (Homo sapiens, UniProt O75116)
Experiment: competition fluorescence polarization

ROCK2, sequence (O75116 whole entry): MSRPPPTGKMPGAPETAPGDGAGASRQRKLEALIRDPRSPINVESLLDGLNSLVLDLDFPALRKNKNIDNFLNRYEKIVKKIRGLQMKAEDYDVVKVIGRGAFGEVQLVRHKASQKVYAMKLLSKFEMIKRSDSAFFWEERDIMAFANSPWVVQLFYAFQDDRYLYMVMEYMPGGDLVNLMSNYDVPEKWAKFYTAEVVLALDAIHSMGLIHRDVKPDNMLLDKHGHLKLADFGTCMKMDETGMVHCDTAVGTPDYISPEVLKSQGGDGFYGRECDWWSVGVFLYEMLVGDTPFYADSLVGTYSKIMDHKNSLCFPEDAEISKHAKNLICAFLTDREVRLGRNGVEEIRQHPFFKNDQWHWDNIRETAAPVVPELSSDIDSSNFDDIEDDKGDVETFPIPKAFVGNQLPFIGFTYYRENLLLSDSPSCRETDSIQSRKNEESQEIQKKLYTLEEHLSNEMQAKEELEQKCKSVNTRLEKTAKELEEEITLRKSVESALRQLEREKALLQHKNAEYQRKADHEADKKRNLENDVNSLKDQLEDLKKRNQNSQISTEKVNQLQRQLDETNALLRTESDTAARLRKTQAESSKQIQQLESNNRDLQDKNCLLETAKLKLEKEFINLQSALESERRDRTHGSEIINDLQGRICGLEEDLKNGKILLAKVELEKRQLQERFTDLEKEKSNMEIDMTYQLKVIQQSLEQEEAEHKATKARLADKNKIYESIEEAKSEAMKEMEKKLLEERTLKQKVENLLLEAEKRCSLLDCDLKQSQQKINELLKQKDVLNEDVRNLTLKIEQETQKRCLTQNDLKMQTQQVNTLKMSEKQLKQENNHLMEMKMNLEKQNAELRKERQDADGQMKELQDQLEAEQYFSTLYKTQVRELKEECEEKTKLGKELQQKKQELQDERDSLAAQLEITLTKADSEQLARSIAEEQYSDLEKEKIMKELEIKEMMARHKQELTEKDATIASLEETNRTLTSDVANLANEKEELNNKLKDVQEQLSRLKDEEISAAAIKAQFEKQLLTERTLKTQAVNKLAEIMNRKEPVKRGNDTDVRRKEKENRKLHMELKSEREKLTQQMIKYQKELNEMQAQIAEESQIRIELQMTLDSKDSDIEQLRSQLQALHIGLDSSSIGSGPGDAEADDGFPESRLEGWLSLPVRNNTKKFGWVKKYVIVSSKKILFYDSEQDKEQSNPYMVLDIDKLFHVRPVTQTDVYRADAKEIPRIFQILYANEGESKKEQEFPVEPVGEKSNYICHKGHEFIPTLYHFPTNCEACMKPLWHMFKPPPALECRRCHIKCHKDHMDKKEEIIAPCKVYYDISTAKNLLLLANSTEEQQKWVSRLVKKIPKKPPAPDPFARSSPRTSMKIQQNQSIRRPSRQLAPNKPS

Kd: 3.5 nM
Binder: ADRGLTTRPGSGLTNIKTEEISEVKMDAEFRHDSGYEVHHQKLVFFAEDV (BACE1 C-terminal peptide present) [APP 646-695]
